Source: patent publication US20170022273A1 (SORRENTO THERAPEUTICS, published 2017)

T1: recombinant mouse LAG3/Fc (mouse, UniProt Q61790 24-442)
T1 construct: Coated on the ELISA plate at 2 ug/mL; not shown: Fc part of the LAG3/Fc fusion
T1 sequence (looked up): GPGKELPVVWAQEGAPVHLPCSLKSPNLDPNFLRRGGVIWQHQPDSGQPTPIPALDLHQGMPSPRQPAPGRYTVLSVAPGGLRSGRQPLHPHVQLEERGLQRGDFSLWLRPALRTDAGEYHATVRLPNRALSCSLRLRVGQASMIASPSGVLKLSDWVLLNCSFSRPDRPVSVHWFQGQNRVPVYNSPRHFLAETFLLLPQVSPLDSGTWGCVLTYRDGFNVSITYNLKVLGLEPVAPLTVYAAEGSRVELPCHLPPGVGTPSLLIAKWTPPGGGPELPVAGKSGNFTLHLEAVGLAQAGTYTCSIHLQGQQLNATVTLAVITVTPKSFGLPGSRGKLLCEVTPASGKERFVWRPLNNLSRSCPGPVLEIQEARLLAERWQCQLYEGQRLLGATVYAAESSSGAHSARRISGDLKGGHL

T2: recombinant human LAG3/Fc (human, UniProt P18627 23-450)
T2 construct: Coated on the ELISA plate at 2 ug/mL; not shown: Fc part of the LAG3/Fc fusion
T2 sequence (looked up): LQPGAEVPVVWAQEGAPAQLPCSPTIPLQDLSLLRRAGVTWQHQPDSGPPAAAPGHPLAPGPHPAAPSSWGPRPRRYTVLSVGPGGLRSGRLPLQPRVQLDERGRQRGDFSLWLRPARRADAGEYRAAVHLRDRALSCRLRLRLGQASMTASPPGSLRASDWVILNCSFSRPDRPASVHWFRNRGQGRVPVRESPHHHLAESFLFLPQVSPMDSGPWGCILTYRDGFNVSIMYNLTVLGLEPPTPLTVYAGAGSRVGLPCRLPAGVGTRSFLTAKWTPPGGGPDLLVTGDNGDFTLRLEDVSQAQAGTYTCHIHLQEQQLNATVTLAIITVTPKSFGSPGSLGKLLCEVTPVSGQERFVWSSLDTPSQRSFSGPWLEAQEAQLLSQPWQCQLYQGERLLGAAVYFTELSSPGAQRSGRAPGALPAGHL

T3: Recombinant human LAG3/His (human, UniProt P18627 23-450)
T3 construct: Analyte in the Biacore assay, serially diluted in HBS-EP; not shown: His tag
T3 sequence (looked up): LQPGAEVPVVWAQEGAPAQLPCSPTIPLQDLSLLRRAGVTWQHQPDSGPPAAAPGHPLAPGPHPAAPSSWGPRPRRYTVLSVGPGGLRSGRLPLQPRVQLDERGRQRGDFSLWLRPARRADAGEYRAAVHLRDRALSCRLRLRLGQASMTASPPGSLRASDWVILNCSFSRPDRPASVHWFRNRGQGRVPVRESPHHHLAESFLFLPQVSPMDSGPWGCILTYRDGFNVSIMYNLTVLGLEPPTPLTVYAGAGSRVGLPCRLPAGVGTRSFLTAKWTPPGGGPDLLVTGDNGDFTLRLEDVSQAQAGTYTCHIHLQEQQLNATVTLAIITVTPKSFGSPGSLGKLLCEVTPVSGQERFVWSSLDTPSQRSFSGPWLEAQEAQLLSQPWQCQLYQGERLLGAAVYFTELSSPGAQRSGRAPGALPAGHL


What was measured:
[1] = molecular target: T1, recombinant mouse LAG3/Fc; assay: ELISA, plate coated with 2 ug/mL recombinant mouse LAG3/Fc, anti-human Lambda HRP detection
Method: (§1) An analysis of the cross-reactivity of various LAG3 antibodies to recombinant mouse LAG3 and human LAG3 was also performed. A Maxisorb ELISA plate was coated with 2 ug/mL recombinant human, and mouse LAG3/Fc (blank: PBS). Incubated overnight at 4° C. The plate was washed 3 times with PBS-Tween (PBST), then blocked with Casein blocking buffer for 1 hour at room temperature. Next, IgGs diluted in casein (about 5ug/ml) were added, and incubated 30 min with shaking. The plate was washed 3 times with PBST. Horseradish peroxidase (HRP)-conjugated goat anti-human Lambda HRP (1:1000 in casein) was added, then 3,3′,5,5′-Tetramethylbenzidine (TMB) was added as substrate and developed 30 min 2M H2SO4 was used to stop the reaction and the OD was read at 450 nm Anti-AIP antibody C7 was used as a control antibody.

[2] = molecular target: T2, recombinant human LAG3/Fc; assay: ELISA, plate coated with 2 ug/mL recombinant human LAG3/Fc, IgG about 5ug/ml
Method: as §1

[3] = molecular target: T3, Recombinant human LAG3/His; assay: Biacore SPR, antibody captured on anti-human Fc CM5 chip, LAG3/His as analyte, 1:1 Langmuir fit
Method: The binding affinity of antibody L3C5 for human LAG3 was also tested using a BiaCore assay. […] Biacore was used to measure the affinity of LAG3 antibody L3C5. Anti-human Fc antibody (GE, BR-1008-39) was immobilized on CM5 sensor chip to approximately 5000 RU using standard NHS/EDC coupling methodology. Antibody (approximately 2 ug/ml) were captured for 60 s at a flow rate 10 uL/min. Recombinant human LAG3/His was serially diluted in running buffer (HBS-EP). All measurements were conducted with a flow rate of 30 μL/min Surfaces were regenerated with 3M MgCl2 (from human antibody kit) for 60 s. A 1:1 (Langmuir) binding model was used to fit the data.

Row | Binder | binding result [1] | binding result [2] | Ka [3] | Kd [3] | koff [3] | kon [3]
1 | L32A4 (antibody, V domains shown, Tested as a fully human IgG with a lambda light chain; also called anti-hLAG3 antibody L32A4) VH: QVQLVQSGAEVKKPGASVKVSCKASGYTFTSYYMHWVRQAPGQGLEWMGIINPSAGSTSYAQKFQGRVTMTRDTSTSTVYMELSSLRSEDTAVYYCARELMATGGFDYWGQGTLVTVSS VL: QSVLTQPASVSGSPGQSITISCTGTSSDIGAYNFVSWYQQHPGKAPKLMIYGVSNRPSGVSSRFSGSKSGSTASLTISGLQAEDEADYYCSSYTTSGSAVFGTGTKLTVL | no binding (tested: about 5ug/ml) | binds |  |  |  | 
2 | L32A9 (antibody, V domains shown, Tested as a fully human IgG with a lambda light chain; also called anti-hLAG3 antibody L32A9) VH: QVQLVQSGAEVKKPGASVKVSCKASGYTFTSYYMHWVRQAPGQGLEWMGIINPSAGSTSYAQKFQGRVTMTRDTSTSTVYMELSSLRSEDTAVYYCARELMATGGFDYWGQGTLVTVSS VL: QSVVTQPPSVSAAPGQKVTISCSGSSSNIGNNYVSWYQQLPGTAPKLLIYDNNKRHSGIPDRFSGSTSDTSATLGITRLQTGDEADYYCGTWDSSLSAYVFGTGTKVTVL | no binding (tested: about 5ug/ml) | binds |  |  |  | 
3 | L33H11 (antibody, V domains shown, Tested as a fully human IgG with a lambda light chain; also called anti-hLAG3 antibody L33H11) VH: QVQLVQSGAEVKKPGASVKVSCKASGYTFTSYYMHWVRQAPGQGLEWMGIINPSAGSTSYAQKFQGRVTMTRDTSTSTVYMELSSLRSEDTAVYYCARELMATGGFDYWGQGTLVTVSS VL: LPVLTQPASVSGSPGQSITISCTGTSSDVGGYNYVSWYQQHPGKAPKLMIYDVTNRPSGVSNRFSGSKSGNTASLTISGLQAEDEADYYCSSYTSSNTLLFGGGTQLTVL | no binding (tested: about 5ug/ml) | binds |  |  |  | 

Second part, the binder after the results:

Row | binding result [1] | binding result [2] | Ka [3] | Kd [3] | koff [3] | kon [3] | Binder
4 | no binding (tested: about 5ug/ml) | binds |  |  |  |  | L35D4 (antibody, V domains shown, Tested as a fully human IgG with a lambda light chain; also called anti-hLAG3 antibody L35D4) VH: QVQLVQSGAEVKKPGASVKVSCKASGYTFTSYYMHWVRQAPGQGLEWMGIINPSAGSTSYAQKFQGRVTMTRDTSTSTVYMELSSLRSEDTAVYYCARELMATGGFDYWGQGTLVTVSS VL: QSVLTQPPSASGSPGQSVTISCTGTSSDVGGYNYVSWYQQYPGKAPRLMIFEVTERASGVPDRFSGSKSGNTASLTVSGLQTEDEAVYFCSSYSGSNNPGAMFGGGTKLTVL
5 |  |  | 6.6e+06 M⁻¹ | 152 nM | 0.0717 s⁻¹ | 473000 M⁻¹ s⁻¹ | L3C5 (antibody, V domains shown, Captured on an anti-human Fc antibody chip in the Biacore assay, so a whole antibody with a human Fc; also called LAG3 antibody L3C5; 13) VH: QVQLVQSGSELKKPGASVKVSCKASGYTFTNYYMHWVRQAPGQGLEWMGIINPSGGATNYAQKFQGRVTMTRDTSTSTVYMELSSLRSEDTAVYYCARDSGYDLGYGMDVWGQGTLVTVSS VL: QSVLTQPASVSGSPGQSITISCTGTSSDVGGYNYVSWYQQHPGKAPKLMIYDVSNRPSGASNRFSGSKSGNTASLTISGLQAEDEADYYCSSYTNRNTLLFGGGTKLTVL
6 | no binding (tested: about 5ug/ml) | binds |  |  |  |  | L32D10 (antibody, V domains shown, Tested as a fully human IgG with a lambda light chain; also called anti-hLAG3 antibody L32D10) VH: QVQLVQSGAEVKKPGASVKVSCKASGYTFTSYYMHWVRQAPGQGLEWMGIINPSAGSTSYAQKFQGRVTMTRDTSTSTVYMELSSLRSEDTAVYYCARELMATGGFDYWGQGTLVTVSS VL: QSVLTQPPSASGSPGQSVTISCTGTSSDVGGYDYVSWYQQHQGKAPKLMIYDVSNRPSGVSNRFSGSKSGNTASLTISGLQAEDEADYYCSSYTSSTTLVFGGGTKLTVL
7 | no binding (tested: about 5ug/ml) | binds |  |  |  |  | L35G6 (antibody, V domains shown, Tested as a fully human IgG with a lambda light chain (detected with anti-human Lambda HRP); also called anti-hLAG3 antibody L35G6) VH: QVQLVQSGAEVKKPGASVKVSCKASGYTFTSYYMHWVRQAPGQGLEWMGIINPSAGSTSYAQKFQGRVTMTRDTSTSTVYMELSSLRSEDTAVYYCARELMATGGFDYWGQGTLVTVSS VL: QAGLTQPASVSGSPGQSITISCTGSSSDVGGYSYVSWYQKHPGKAPKLMIYDVTNRPSGVSNRFSGSKSGNTASLTISGLQAEDEADYYCSTYTRSNTLVFGPGTKVTVL
